Assay results published in patent US20210024639A1 (AGOMAB THERAPEUTICS, published 2021).

B1: chimeric llama-human IgG1 mAb 76H10 (antibody, V domains shown)
VH: QLQLVESGGGLVQPGGSLRVSCTASGFTFNTYYMTWVRQAPGKGLEWVSDINSGGGTYYADSVKGRFTISRDNAKNTLYLQMNSLKPEDTALYYCVRVRIWPVGYDYWGQGTQVTVSS
VL: QAVVTQEPSLSVSPGGTVTLTCGLSSGSVTTSNYPGWFQQTPGQAPRTLIYNTNNRHSGVPSRFSGSISGNKAALTITGAQPEDEADYYCSLYTGSYTTVFGGGTHLTVL
B2: chimeric llama-human IgG1 mAb 71G2 (antibody, V domains shown)
VH: EVQLQESGGGLVQPGGSLRLSCAASGFTFSIYDMSWVRQAPGKGLEWVSTINSDGSSTSYVDSVKGRFTISRDNAKNTLYLQMNSLKPEDTAVYYCAKVYGSTWDVGPMGYGMDYWGKGTLVTVSS
VL: SSALTQPSALSVSLGQTARITCQGGSLGSSYAHWYQQKPGQAPVLVIYGDDSRPSGIPERFSGSSSGGTATLTISGAQAEDEDDYYCQSTDSSGNTVFGGGTRLTVL
B3: chimeric llama-human IgG1 mAb 71A3 (antibody, V domains shown)
VH: EVQLVESGGGLVQPGGSLRLSCAASGFSFKDYDITWVRQAPGKGLEWVSTITSRSGSTSYVDSVKGRFTISGDNAKNTLYLQMNSLKPEDTAVYYCAKVYATTWDVGPLGYGMDYWGKGTLVTVSS
VL: SYELTQPSALSVTLGQTAKITCQGGSLGSSYAHWYQQKPGQAPVLVIYDDDSRPSGIPERFSGSSSGGTATLTISGAQAEDEGDYYCQSADSSGNAAVFGGGTHLTVL

Experiments:
[1] = biological target: T1, mouse MET-Fc chimeric protein (R&D Systems) (mouse, UniProt P16056 25-929, limits assumed); assay: competition ELISA, mMET-Fc in solid phase, competitor 0.3 nM biotinylated mHGF
T1 construct: bought (R&D Systems); also called mMET; not shown: Fc
Protocol: (§1) To investigate along this line, we tested the competition between mAbs and HGF by ELISA. Recombinant human and mouse HGF (R&D Systems) were biotinylated at the N-terminus using NHS-LC-biotin (Thermo Scientific). MET-Fc protein, either human or mouse (R&D Systems), was immobilized in solid phase and then exposed to 0.3 nM biotinylated HGF, either human or mouse, in the presence of increasing concentrations of antibodies (0-120 nM).
(§2) A MET-Fc chimeric protein (either human or mouse) was immobilized in solid phase and exposed to a fixed concentration of biotinylated HGF (either human or mouse), in the presence of increasing concentrations of antibodies. […] Antibody-HGF competition is expressed as IC₅₀ (the concentration that achieves 50% competition) and IMAX (the maximum % competition reached at saturation).

[2] = biological target: T2, human MET-Fc chimeric protein (R&D Systems) (human, UniProt P08581 25-932); assay: competition ELISA, hMET-Fc in solid phase, competitor 0.3 nM biotinylated hHGF
T2 construct: extracellular domain; bought (R&D Systems); also called hMET; not shown: Fc portion of human IgG1
Protocol: as §1, §2

[3] = biological target: T3, native human MET on living human cells (human, UniProt P08581 25-1390); assay: flow cytometry, A549 cells
T3 construct: whole, on cells; also called Human cells (A549); HPAF-II
Protocol: (§3) We also analysed whether chimeric anti-MET antibodies bound to native human and mouse MET in living cells. […] Antibody binding to cells was analysed by flow cytometry using phycoerythrin-conjugated anti-human IgG1 antibodies (eBioscience) and a CyAn ADP analyser (Beckman Coulter). As a positive control for human MET binding, we used a commercial mouse anti-human MET antibody (R&D Systems) and phycoerythrin-conjugated anti-mouse IgG1 antibodies (eBioscience). As a positive control for mouse MET binding we used a commercial goat anti-mouse MET antibody (R&D Systems) and phycoerythrin-conjugated anti-goat IgG1 antibodies (eBioscience). […] Consistent with the data obtained in ELISA, maximal binding (EMAX) varied depending on antibody, but was similar in human and mouse cells.

[4] = biological target: human MET ECD mutant I (mutations 6, 7, 8) (human) (UniProt P08581); assay: ELISA, MET ECD mutant in solid phase, mAb 0-50 nM
[5] = biological target: human MET ECD mutant J (mutations 6, 7) (human) (UniProt P08581); assay: ELISA, MET ECD mutant in solid phase, mAb 0-50 nM
[6] = biological target: T3, native human MET on living human cells; assay: cell-based or functional assay
[7] = biological target: T4, native mouse MET on living mouse cells (mouse, UniProt P16056 25-1379); assay: cell-based or functional assay
[8] = biological target: T3, native human MET on living human cells; assay: cell-based or functional assay; remark: listed apart in the source
[9] = biological target: T4, native mouse MET on living mouse cells; assay: cell-based or functional assay; remark: listed apart in the source
[10] = biological target: T4, native mouse MET on living mouse cells; assay: flow cytometry, MLP29 cells
Protocol: as §3

[11] = biological target: human MET ECD mutant D (mutations 1, 2) (human) (UniProt P08581); assay: ELISA, MET ECD mutant in solid phase, mAb 0-50 nM
[12] = biological target: human MET ECD mutant E (mutations 2, 3, 4) (human) (UniProt P08581); assay: ELISA, MET ECD mutant in solid phase, mAb 0-50 nM
[13] = biological target: human MET ECD mutant H (mutations 2, 4) (human) (UniProt P08581); assay: ELISA, MET ECD mutant in solid phase, mAb 0-50 nM
[14] = biological target: human MET ECD mutant A (mutations 1, 2, 3) (human) (UniProt P08581); assay: ELISA, MET ECD mutant in solid phase, mAb 0-50 nM
[15] = biological target: T5, human MET extracellular domain (ECD) (human, UniProt P08581 25-932); assay: ELISA, MET ECD in solid phase, mAb 0-50 nM
T5 construct: range 1-932; recombinant ECD; also called hMET; human MET ECD
Protocol: Using human MET as a template, we mutagenized each of these residues in different permutations, generating a series of MET mutants that are fully human except for specific residues, which are llama. Next, we tested the affinity of selected SEMA-binding mAbs (71D6, 71C3, 71D4, 71A3, 71G2) and PSI-binding mAbs (76H10 and 71G3) for these MET mutants by ELISA. To this end, the various MET proteins were immobilized in solid phase (100 ng/well in a 96-well plate) and then exposed to increasing concentrations of antibodies (0-50 nM) solution. […] Wild-type human MET was used as positive control.
TABLE 18 The epitopes of MET responsible for agonistic antibody binding represent residues conserved among H. sapiens, M. musculus, R. norvegicus, M. fascicularis but not among the same species and L. glama. The relevance of residues conserved among human, mouse, rat, cynomolgus monkey but not llama MET for binding to agonistic mAbs was tested by ELISA. Wild-type (WT) or mutant (MT) human MET ECD was immobilized in solid phase and exposed to increasing concentrations of mAbs in solution. […] All binding values were normalized to the WT protein and are expressed as % binding (EMAX) compared to WT MET.

Binder	IMAX (maximum % competition) [1]	IMAX (maximum % competition) [2]	EMAX (% relative to control) [3]	protection from staurosporine, viability EC50, MCF10A [6]	protection from staurosporine, viability EMAX, MCF10A [6]	protection from staurosporine, viability EC50, MLP29 [7]	protection from staurosporine, viability EMAX, MLP29 [7]	cell scattering score, HPAF-II, 0.001 nM [8]	cell scattering score, HPAF-II, 0.004 nM [8]	cell scattering score, HPAF-II, 0.012 nM [8]	cell scattering score, HPAF-II, 0.037 nM [8]	cell scattering score, HPAF-II, 0.111 nM [8]	cell scattering score, HPAF-II, 0.333 nM [8]	cell scattering score, HPAF-II, 1.000 nM [8]	cell scattering score, HPAF-II, 3.000 nM [8]	cell scattering score, HPAF-II, 9.000 nM [8]	cell scattering score, MLP29, 0.001 nM [9]	cell scattering score, MLP29, 0.004 nM [9]	cell scattering score, MLP29, 0.012 nM [9]	cell scattering score, MLP29, 0.037 nM [9]	other results
B1	62.7%	64.2%	130%	> 32 nM	22.8%	> 32 nM	27.2%	0 score 0-4	0 score 0-4	0 score 0-4	0 score 0-4	0 score 0-4	0 score 0-4	1 score 0-4	2 score 0-4	3 score 0-4	0 score 0-4	0 score 0-4	0 score 0-4	0 score 0-4	% binding (EMAX) compared to WT MET [4]: 100%; % binding (EMAX) compared to WT MET [5]: 89%; cell scattering score, MLP29, 0.111 nM [9]: 0 score 0-4; cell scattering score, MLP29, 0.333 nM [9]: 0 score 0-4; cell scattering score, MLP29, 1.000 nM [9]: 1 score 0-4; cell scattering score, MLP29, 3.000 nM [9]: 2 score 0-4; cell scattering score, MLP29, 9.000 nM [9]: 3 score 0-4; EMAX (% relative to control) [10]: 124%
B2	91.9%	97.8%	144%	1.06 nM	64.8%	1.99 nM	58.3%	0 score 0-4	1 score 0-4	2 score 0-4	3 score 0-4	4 score 0-4	4 score 0-4	4 score 0-4	4 score 0-4	4 score 0-4	0 score 0-4	0 score 0-4	1 score 0-4	2 score 0-4	% binding (EMAX) compared to WT MET [11]: 114%; % binding (EMAX) compared to WT MET [12]: 41.4%; % binding (EMAX) compared to WT MET [13]: 40.2%; % binding (EMAX) compared to WT MET [14]: 92.1%; % binding (EMAX) compared to WT MET [15]: 100%; cell scattering score, MLP29, 0.111 nM [9]: 4 score 0-4; cell scattering score, MLP29, 0.333 nM [9]: 4 score 0-4; cell scattering score, MLP29, 1.000 nM [9]: 4 score 0-4; cell scattering score, MLP29, 3.000 nM [9]: 4 score 0-4; cell scattering score, MLP29, 9.000 nM [9]: 4 score 0-4; EMAX (% relative to control) [10]: 130%
B3	87.7%	93.4%	161%	< 0.5 nM	71.7%	< 0.5 nM	70.5%	0 score 0-4	0 score 0-4	2 score 0-4	3 score 0-4	3 score 0-4	4 score 0-4	4 score 0-4	4 score 0-4	4 score 0-4	0 score 0-4	0 score 0-4	2 score 0-4	3 score 0-4	% binding (EMAX) compared to WT MET [11]: 128%; % binding (EMAX) compared to WT MET [12]: 65.4%; % binding (EMAX) compared to WT MET [13]: 76.7%; % binding (EMAX) compared to WT MET [14]: 117%; % binding (EMAX) compared to WT MET [15]: 100%; cell scattering score, MLP29, 0.111 nM [9]: 3 score 0-4; cell scattering score, MLP29, 0.333 nM [9]: 4 score 0-4; cell scattering score, MLP29, 1.000 nM [9]: 4 score 0-4; cell scattering score, MLP29, 3.000 nM [9]: 4 score 0-4; cell scattering score, MLP29, 9.000 nM [9]: 4 score 0-4; EMAX (% relative to control) [10]: 144%
